Source: article PMC4271523, “Differential Effects of a Mutation on the Normal and Promiscuous Activities of Orthologs: Implications for Natural and Directed Evolution” (Molecular Biology and Evolution, 2014)

How the values were obtained:
Assay in all cases: purified protein
[1] = substrate: N[C@@H](CCC=O)C(=O)O; assay type: biochemical, Methanosarcina acetivorans; conditions: 1 mM NADP+, 100 mM potassium phosphate pH 7.6, room temperature, reverse (dehydrogenase) direction, apparent KM corrected to free GSA aldehyde/hydrate
[2] = substrate: N[C@@H](CCC=O)C(=O)O; conditions: 1 mM NADP+, 100 mM potassium phosphate pH 7.6, room temperature, reverse (dehydrogenase) direction, apparent KM corrected to free GSA aldehyde/hydrate
[3] = substrate: CC(=O)N[C@@H](CCC=O)C(=O)O; conditions: 1 mM NADP+, 100 mM potassium phosphate pH 7.6, room temperature, reverse (dehydrogenase) direction, promiscuous substrate, apparent KM, NAGSA in equilibrium with its hydrate
[4] = substrate: N[C@@H](CCC=O)C(=O)O; assay type: biochemical, Pseudomonas putida; conditions: 1 mM NADP+, 100 mM potassium phosphate pH 7.6, room temperature, reverse (dehydrogenase) direction, apparent KM corrected to free GSA aldehyde/hydrate
[5] = substrate: CC(=O)N[C@@H](CCC=O)C(=O)O; assay type: biochemical, Pseudomonas putida; conditions: 1 mM NADP+, 100 mM potassium phosphate pH 7.6, room temperature, reverse (dehydrogenase) direction, promiscuous substrate, apparent KM, NAGSA in equilibrium with its hydrate
[6] = substrate: N[C@@H](CCC=O)C(=O)O; assay type: biochemical, Aliivibrio fischeri; conditions: 1 mM NADP+, 100 mM potassium phosphate pH 7.6, room temperature, reverse (dehydrogenase) direction, apparent KM corrected to free GSA aldehyde/hydrate

B1: Methanosarcina acetivorans ProA (Methanosarcina acetivorans C2A) (protein)
chain: MAEDIETKVVKAKKASIELSSVSEEVKNRALEAMAESLDRERKAILEANSKDLEYASELKKVGKLTQALVDRLKVTDSKIDGMIAGIMDVIKLKDPVGETLSTLELDNDLILYQISCPIGLIGVIFESRPDVVPQVMSLCLKSGNATIFKGGSEARESNRTIFEILVKAIESTEGMPKGAFQLMETREEIMSLLSLDAYVDLLIPRGSNEFVKFIQDNTKIPVLGHTSGICHIYVDEFADPDTAWKVCFDAKVQYPAVCNAIETLLVNRKIAEAFLPKMAEMYIKAGVELRCDKDSYILLAEKGLSPLSKATEEDWSLEYNDLILSIKLVDTIKEAIAHINTFGSHHTDGIITENASRRKEFIGLVDSSSVMVNASTRFADGYRYGKGAEVGISTNKIHSRGPVGMEGLLIYKYILMGKGQVVADYAGENAKPYTHRKLDLKFADVN
notes: His-tagged, pTrcHisB, expressed in delta-argC delta-proA E. coli BW25113 (DE3)
Km [1]: 14 ± 4 µM
kcat [1]: 0.43 ± 0.03 s⁻¹
kcat/Km [1]: 25000 ± 11000 M⁻¹ s⁻¹

B2: Methanosarcina acetivorans ProA (Methanosarcina acetivorans C2A; E390A) (protein)
chain: MAEDIETKVVKAKKASIELSSVSEEVKNRALEAMAESLDRERKAILEANSKDLEYASELKKVGKLTQALVDRLKVTDSKIDGMIAGIMDVIKLKDPVGETLSTLELDNDLILYQISCPIGLIGVIFESRPDVVPQVMSLCLKSGNATIFKGGSEARESNRTIFEILVKAIESTEGMPKGAFQLMETREEIMSLLSLDAYVDLLIPRGSNEFVKFIQDNTKIPVLGHTSGICHIYVDEFADPDTAWKVCFDAKVQYPAVCNAIETLLVNRKIAEAFLPKMAEMYIKAGVELRCDKDSYILLAEKGLSPLSKATEEDWSLEYNDLILSIKLVDTIKEAIAHINTFGSHHTDGIITENASRRKEFIGLVDSSSVMVNASTRFADGYRYGKGAAVGISTNKIHSRGPVGMEGLLIYKYILMGKGQVVADYAGENAKPYTHRKLDLKFADVN
notes: as for B1
Km [1]: 56 ± 28 µM
kcat [1]: 0.0018 ± 0.0005 s⁻¹
kcat/Km [1]: 32 ± 15 M⁻¹ s⁻¹

B3: Salmonella enterica ProA (Salmonella enterica subsp. enterica serovar Typhimurium str. LT2) (protein)
chain: MLEQMGIAAKAASYKLALLSSGEKNRVLEKIADELEAQMESILSANVQDVEQARANGLSEAMLDRLALTPARLKAIADDVRQVCNLADPVGQVIDGGLLDSGLRLERRRVPLGVVGVIYEARPNVTVDVASLCLKTGNAVILRGGKETYRTNAATVRVIQKALKACGLPEAAVQAIDNPDRSLVNEMLRMDKYIDMLIPRGGAGLHKLCREQSTIPVITGGIGVCHIFVDSSADIAPALKIIVNAKTQRPSTCNTVETLLVHQDIAERFLPALSKQMAESGVTLHGDETVMQVLHGPAKLVPLKPEELDNEFLSLDLNVVVVENMDGAIAHIREHGTQHSDAILTCDMHNAARFVNEVDSAAVYVNASTRFTDGGQFGLGAEVAVSTQKLHARGPMGLEALTTYKWIGFGDGTIRA
Km [2]: 54 ± 12 µM
kcat [2]: 3.7 ± 0.5 s⁻¹
kcat/Km [2]: 69000 ± 7000 M⁻¹ s⁻¹
Km [3]: 2600 ± 100 µM

B4: Pseudomonas putida ProA (Pseudomonas putida KT2440) (protein)
chain: MTESVLDYMTRLGRAAREASRVIGRASTAQKNRALQAAADALDAARAELTAANELDLAAGRASGLEPALLDRLALTPARIDGMITGLRQVASLPDPVGAIRDMSYRPSGIQVGKMRTPLGVIGIIYESRPNVTIDAASLCLKSGNATILRGGSEAIHSNRAIATCIQRGLAEAGLPAAVVQVVETTDREAVGALISMPEFVDVIVPRGGRGLIERISRDARVPVIKHLDGICHIYVSQHADLDKAWNVAFNAKTYRYGICGAMETLLVDQQVAERFLPEMARRFVEKGVELRGCERTQAIISAKPATEADWHTEYLDAILSIRVVDGLNQAIEHINHYGSHHTDSIISEHQGEARQFMAEVDSASVMLNTPTCFADGFEYGLGAEIGISTDKLHARGPVGLEGLTCEKYVVIGDGQLRGQGSC
notes: as for B1
Km [4]: 140 ± 90 µM
kcat [4]: 0.74 ± 0.23 s⁻¹
kcat/Km [4]: 6100 ± 1700 M⁻¹ s⁻¹
Km [5]: 5200 ± 1900 µM
kcat [5]: 0.001 ± 0.0003 s⁻¹
kcat/Km [5]: 0.15 ± 0.055 M⁻¹ s⁻¹

B5: Allivibrio fischeri ProA (Aliivibrio fischeri ES114) (protein)
chain: MNLTTMGQAAKAAAFDLAVAPTAQKNKALAIIADELEANKDAILAANEKDIKAAVEAGISEAMQDRLLLTEERLVGIANDVRNVINLNDPVGSEIDSKVLENGMSLSRRRVPIGVIGVIYEARPNVTIDIASLCLKTGNASILRGGKETFFSNMELVKVIQVALEKAGLPAASVQYIEKPDRELVSQLLTMDDYVDMIIPRGGAGLHKMCKENSSIPVIIGGFGISHAFVDESADLERALVVVDNSKAQRPSACNALDTLLVHEAVAPQFLALLANNMAGRVELVAEPKAYGLLKEFEGVSLREAQEGDFDTEWLSYTLGVKVVADVNEAAAHMQKHNASHSDTILTNNIESAEKFINTAGSAAVYVNASTRFTDGAQFGLGAEVAVSTQKLHARGPMGLEELTSYKWVGKADYLIRS
notes: as for B1
Km [6]: 46 ± 11 µM
kcat [6]: 1.9 ± 0.2 s⁻¹
kcat/Km [6]: 42000 ± 6000 M⁻¹ s⁻¹
